Legend:
[1] = biological target: human NL1 cholinesterase domain lacking splice inserts (hNL1(–A–B)_(ECTO); Gln46-Asp635), crystallisation sample (human); assay: crystal structure; Endo F1-treated hNL1(–A–B)_(ECTO)–cMDGA1_(ECTO) complex, mixed 1:1.25, 0.1M Na.HEPES pH 7.0, 7.5% PEG8000; 3.30 Å
[2] = biological target: human NL1(–A–B)_(ECTO) (Gln46-Asp635), soluble protein for ITC and as SPR analyte (human); assay: ITC; competition: β-NRX1_(LNS6)(–4) titrated into NL1_(ECTO) with an equimolar amount of MDGA1_(ECTO) in the cell; HBS-C, 295 K; apparent KD
[3] = biological target: human NL1(–A–B)_(ECTO) (Gln46-Asp635), soluble protein for ITC and as SPR analyte (human); assay: ITC; β-NRX1_(LNS6)(–4) in the syringe titrated into NL1_(ECTO) alone in the cell; HBS-C (10 mM HEPES pH 7.50, 150 mM NaCl, 3 mM CaCl2), 295 K; one binding site model
[4] = biological target: human NL3(–A)_(ECTO) (Gln38-Asp636), immobilised for SPR (human) (UniProt Q9NZ94); assay: SPR; biotinylated NL_(ECTO)-Avitag variants captured from dialysed conditioned medium on streptavidin CM5 chip (500 RU; 550 RU for the ΔSite series; 1000 RU for NL3 and NL3 Arg451Cys in the R451C series); β-NRX1_(LNS6)(±4), MDGA1_(ECTO), MDGA2_(ECTO) injected, 15 concentrations, two-fold series from 50 μM; TBS-CTB (10 mM Tris pH 7.4, 150 mM NaCl, 3 mM CaCl2, 0.005% Tween-20, 1.0 g/L BSA); equilibrium analysis, 1:1 Langmuir model
[5] = biological target: human NL1(–A+B)_(ECTO), immobilised for SPR (human); assay: as above
[6] = biological target: human NL1(–A–B)_(ECTO), biotinylated and immobilised for SPR (human); assay: as above

human NL3(–A)_(ECTO) (Gln38-Asp636), immobilised for SPR (human), sequence (Q9NZ94 other isoform, or with tags, fused parts or gaps): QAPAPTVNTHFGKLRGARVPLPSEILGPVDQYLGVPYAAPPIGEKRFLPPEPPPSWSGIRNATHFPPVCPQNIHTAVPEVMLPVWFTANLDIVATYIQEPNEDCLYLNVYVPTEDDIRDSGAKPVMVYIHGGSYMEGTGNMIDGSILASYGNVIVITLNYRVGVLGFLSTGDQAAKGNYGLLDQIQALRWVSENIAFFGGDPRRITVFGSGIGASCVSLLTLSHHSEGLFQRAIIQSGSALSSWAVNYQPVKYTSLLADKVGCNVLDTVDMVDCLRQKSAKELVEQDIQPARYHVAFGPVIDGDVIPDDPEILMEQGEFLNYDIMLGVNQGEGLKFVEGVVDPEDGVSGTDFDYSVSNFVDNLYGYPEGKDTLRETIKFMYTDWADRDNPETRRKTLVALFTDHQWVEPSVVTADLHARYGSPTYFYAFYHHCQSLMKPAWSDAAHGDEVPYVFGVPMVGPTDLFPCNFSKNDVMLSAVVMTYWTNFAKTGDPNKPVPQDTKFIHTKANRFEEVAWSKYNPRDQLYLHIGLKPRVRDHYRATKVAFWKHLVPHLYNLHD

Substance | stoichiometry N [1] | K (D,app) with an equimolar amount of MDGA1 (ECTO) [2] | Kd [3] | Kd [4] | fold weaker than with NL1(–A–B) (ECTO) [5] | Kd [6]
human NL1 cholinesterase domain lacking splice inserts (hNL1(–A–B)_(ECTO); Gln46-Asp635), crystallisation sample (domain or fragment) | 2 | – | – | – | – | –
human β-neurexin-1 LNS6 domain lacking SS4 (β-NRX1_(LNS6)(–4); His85-Val265) (domain or fragment) | – | 4.76 µM | 388 nM | 8500 nM | < 2 fold | 718 nM
human β-neurexin-1 LNS6 domain with SS4 (β-NRX1_(LNS6)(+4)) (domain or fragment) | – | – | – | – | < 2 fold | –
